Results taken from article PMC6275497, “Folding pathway of an Ig domain is conserved on and off the ribosome” (Proceedings of the National Academy of Sciences of the …, 2018).

Assays:
[1] = target: ribosomal protein uL24 (E. coli (endogenous in E. coli KC6), UniProt P60624 1-104); test: cryo-EM structure; TnaC-stalled I27[L = 35] ribosome-nascent chain complexes purified from E. coli by the His tag; average resolution 3.2 Å, I27 density ~4.5- to 9-Å; rigid-body fit of PDB 1TIT and PDB 4UY8, uL24 β hairpin remodeled; settings: both partners purified
[2] = target: ribosomal protein uL29 (E. coli (endogenous in E. coli KC6), UniProt P0A7M6 1-63); test: as above; settings: both partners purified

B1: N-terminally His-tagged I27-TnaC[L = 35] nascent chain (titin I27 domain, linker, TnaC arrest peptide), stalled on the ribosome (other)
chain: MDMGHHHHHHHHDYDIPTTLEVLFQGPGTLIEVEKPLYGVEVFVGETAHFEIELSEPDVHGQWKLKGQPLAASPDCEIIEDGKKHILILHNCQLGMTGEVSFQAANTKSAANLKVKELSGSGSGSGGPNILHISVTSKWFNIDNKIVDHRP
modifications: nascent chain held as peptidyl-tRNA on the stalled ribosome
notes: N-terminal leader of the construct as printed; it holds the 8X His tag itself; titin I27 Ig domain, 89-residue construct; numbers count on: the I27 domain itself (L1-L89); linker between I27 and the TnaC arrest peptide; TnaC arrest peptide; also called I27[L = 35]; not shown: His8, N-terminal, kept
binding result [1]: binds
binding result [2]: binds
